Consider 3 molecules from US20210379129A1 (BIOCOMO INCORPORATION, published 2021).

In test [1] the target is T1, human OX40 receptor (BioLegend Inc, Cat #780804) (human, UniProt P43489 29-214).
T1 construct: Bought reagent; No Fc tag is stated for this one, but detection was by HRP-Protein A 'adsorbed on the human Fc region', so a human Fc tag is likely; also called human OX40 receptor protein
T1 sequence: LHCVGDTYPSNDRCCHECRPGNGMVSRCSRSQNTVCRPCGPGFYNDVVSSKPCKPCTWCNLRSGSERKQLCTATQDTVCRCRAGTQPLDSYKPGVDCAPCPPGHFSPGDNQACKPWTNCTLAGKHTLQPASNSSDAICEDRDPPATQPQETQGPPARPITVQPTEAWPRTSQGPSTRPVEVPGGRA
The test is described as follows: ELISA: 1x10^6 BC-PIV particles coated per well, receptor added at 1, 10, 50, 100 ng, HRP-Protein A, absorbance at 450 nm. Background: ELISA stands for enzyme-linked immunosorbent assay.

Test [2] addresses T2, mouse 4-1BBL incorporated into the envelope of BC-PIV particles (mouse, UniProt P41274 1-309, Membrane-anchored type II protein on the BC-PIV envelope; paragraph 280 expects trimers that associate into higher multimers; one protomer is given.).
T2 construct: Whole membrane protein on virus particles coated on the ELISA plate; also called mouse 4-1BBL-carrying BC-PIV; BC-PIV/4-1BBL
T2 sequence: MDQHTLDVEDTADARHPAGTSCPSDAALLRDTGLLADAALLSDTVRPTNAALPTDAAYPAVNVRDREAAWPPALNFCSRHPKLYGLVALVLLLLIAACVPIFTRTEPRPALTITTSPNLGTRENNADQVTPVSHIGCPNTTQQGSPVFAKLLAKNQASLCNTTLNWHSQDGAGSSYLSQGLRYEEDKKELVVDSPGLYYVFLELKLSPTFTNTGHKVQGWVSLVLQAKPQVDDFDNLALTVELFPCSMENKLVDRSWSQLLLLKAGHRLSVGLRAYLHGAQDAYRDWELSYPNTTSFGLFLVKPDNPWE
The test can be described thus: ELISA: 1x10^6 BC-PIV particles coated per well, receptor-Fc added at 1, 10, 50, 100 ng, HRP-Protein A, absorbance at 450 nm.

For test [3], the target named is T3, mouse OX40L incorporated into the envelope of BC-PIV particles (mouse, UniProt P43488 1-198, Membrane-anchored type II protein on the BC-PIV envelope, expected as a homotrimer; one protomer is given.).
T3 construct: Whole membrane protein on virus particles coated on the ELISA plate (1x10^6 particles per well); The form 'whole, on cells' is the nearest choice; the carrier is a virus envelope; also called mouse OX40L-carrying BC-PIV; BC-PIV/OX40L
T3 sequence: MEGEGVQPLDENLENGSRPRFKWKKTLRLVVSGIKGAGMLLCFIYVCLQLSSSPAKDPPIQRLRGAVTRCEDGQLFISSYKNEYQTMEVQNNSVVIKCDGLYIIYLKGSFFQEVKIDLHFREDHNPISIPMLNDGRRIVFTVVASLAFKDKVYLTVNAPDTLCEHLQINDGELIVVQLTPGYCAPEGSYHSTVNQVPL
Described as above.

B1: human OX40L incorporated into the envelope of BC-PIV particles (ligand)
chain: MERVQPLEENVGNAARPRFERNKLLLVASVIQGLGLLLCFTYICLHFSALQVSHRYPRIQSIKVQFTEYKKEKGFILTSQKEDEIMKVQNNSVIINCDGFYLISLKGYFSQEVNISLHYQKDEEPLFQLKKVRSVNSLMVASLTYKDKVYLNVTTDNTSLDDFHVNGGELILIHQNPGEFCVL
modifications: Membrane-anchored type II protein on the BC-PIV envelope, expected as a homotrimer; one protomer is given.
notes: Whole membrane protein on virus particles coated on the ELISA plate; also called human OX40L-carrying BC-PIV
In the case of B1, the binding result in test [1] was “binds”.

B2: mouse 4-1BB receptor (C-terminal human IgG Fc Tag; BioLegend Inc, Cat #756704) (Fc fusion)
chain: VQNSCDNCQPGTFCRKYNPVCKSCPPSTFSSIGGQPNCNICRVCAGYFRFKKFCSSTHNAECECIEGFHCLGPQCTRCEKDCRPGQELTKQGCKTCSLGTFNDQNGTGVCRPWTNCSLDGRSVLKTGTTEKDVVCGPPVVSFSPSTTISVTPEGGPGGHSLQVL
notes: Bought reagent; also called mouse 4-1BB receptor protein; not shown: C-terminal human IgG Fc tag
As to B2, the binding result in test [2] is given as “binds”.

B3: trimeric mouse OX40 receptor (C-terminal human IgG Fc Tag; BioLegend Inc, Cat #78904) (Fc fusion)
chain: VTARRLNCVKHTYPSGHKCCRECQPGHGMVSRCDHTRDTLCHPCETGFYNEAVNYDTCKQCTQCNHRSGSELKQNCTPTQDTVCRCRPGTQPRQDSGYKLGVDCVPCPPGHFSPGNNQACKPWTNCTLSGKQTRHPASDSLDAVCEDRSLLATLLWETQRPTFRPTTVQSTTVWPRTSELPSPPTLVTPEGP
notes: Bought reagent, called 'trimeric'; not shown: C-terminal human IgG Fc tag
With B3, the binding result in test [3] is recorded as “binds”.
